# Article PMC11324745
# Biological target: Polθ-hel (DNA polymerase theta helicase domain) (human, UniProt O75417 1-894)
# Assay: EMSA
# Polθ-hel (DNA polymerase theta helicase domain), sequence (O75417 1-894): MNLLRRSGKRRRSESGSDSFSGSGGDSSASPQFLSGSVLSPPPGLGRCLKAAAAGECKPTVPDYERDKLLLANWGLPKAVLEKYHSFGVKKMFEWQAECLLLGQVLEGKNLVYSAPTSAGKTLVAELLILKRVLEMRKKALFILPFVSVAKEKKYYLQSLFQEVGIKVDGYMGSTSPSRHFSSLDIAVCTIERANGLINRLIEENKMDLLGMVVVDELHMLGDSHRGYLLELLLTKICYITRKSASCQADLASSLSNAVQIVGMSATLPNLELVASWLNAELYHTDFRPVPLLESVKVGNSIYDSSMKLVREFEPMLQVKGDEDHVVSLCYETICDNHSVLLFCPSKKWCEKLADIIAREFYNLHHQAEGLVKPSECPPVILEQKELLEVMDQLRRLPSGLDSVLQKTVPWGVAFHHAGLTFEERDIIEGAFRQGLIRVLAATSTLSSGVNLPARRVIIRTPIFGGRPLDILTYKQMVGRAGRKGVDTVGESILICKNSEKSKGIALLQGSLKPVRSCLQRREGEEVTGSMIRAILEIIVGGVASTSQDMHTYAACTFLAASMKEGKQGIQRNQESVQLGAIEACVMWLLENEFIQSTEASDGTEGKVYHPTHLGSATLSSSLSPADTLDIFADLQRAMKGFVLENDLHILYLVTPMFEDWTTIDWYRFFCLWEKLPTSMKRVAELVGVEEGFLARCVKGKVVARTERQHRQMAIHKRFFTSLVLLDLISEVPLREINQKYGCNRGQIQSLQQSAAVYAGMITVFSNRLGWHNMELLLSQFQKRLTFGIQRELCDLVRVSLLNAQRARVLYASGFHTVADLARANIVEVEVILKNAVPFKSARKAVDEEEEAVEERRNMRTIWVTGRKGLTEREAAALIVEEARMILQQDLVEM
binder,measurement,value
TTTTTTTTTTTTTTTTTTTTTTTTTTTTT (ssDNA) [ssDNA RP316],binding result,binds
